# Results taken from IntAct's records for PubMed 17483306.
# B1: ATPase 2, plasma membrane-type (Arabidopsis thaliana (Mouse-ear cress)), P19456 (parent)
# chain: MSSLEDIKNETVDLEKIPIEEVFQQLKCSREGLTTQEGEDRIQIFGPNKLEEKKESKLLKFLGFMWNPLSWVMEMAAIMAIALANGDGRPPDWQDFVGIICLLVINSTISFIEENNAGNAAAALMAGLAPKTKVLRDGKWSEQEAAILVPGDIVSIKLGDIIPADARLLEGDPLKVDQSALTGESLPVTKHPGQEVFSGSTCKQGEIEAVVIATGVHTFFGKAAHLVDSTNQVGHFQKVLTAIGNFCICSIAIGMVIEIIVMYPIQRRKYRDGIDNLLVLLIGGIPIAMPTVLSVTMAIGSHRLSQQGAITKRMTAIEEMAGMDVLCSDKTGTLTLNKLSVDKNLVEVFCKGVEKDQVLLFAAMASRVENQDAIDAAMVGMLADPKEARAGIREVHFLPFNPVDKRTALTYIDGSGNWHRVSKGAPEQILELAKASNDLSKKVLSIIDKYAERGLRSLAVARQVVPEKTKESPGAPWEFVGLLPLFDPPRHDSAETIRRALNLGVNVKMITGDQLAIGKETGRRLGMGTNMYPSSALLGTHKDANLASIPVEELIEKADGFAGVFPEHKYEIVKKLQERKHIVGMTGDGVNDAPALKKADIGIAVADATDAARGASDIVLTEPGLSVIISAVLTSRAIFQRMKNYTIYAVSITIRIVFGFMLIALIWEFDFSAFMVLIIAILNDGTIMTISKDRVKPSPTPDSWKLKEIFATGVVLGGYQAIMTVIFFWAAHKTDFFSDTFGVRSIRDNNHELMGAVYLQVSIISQALIFVTRSRSWSFVERPGALLMIAFLIAQLIATLIAVYANWEFAKIRGIGWGWAGVIWLYSIVTYFPLDVFKFAIRYILSGKAWLNLFENKTAFTMKKDYGKEEREAQWALAQRTLHGLQPKEAVNIFPEKGSYRELSEIAEQAKRRAEIARLRELHTLKGHVESVVKLKGLDIETPSHYTV
# partner: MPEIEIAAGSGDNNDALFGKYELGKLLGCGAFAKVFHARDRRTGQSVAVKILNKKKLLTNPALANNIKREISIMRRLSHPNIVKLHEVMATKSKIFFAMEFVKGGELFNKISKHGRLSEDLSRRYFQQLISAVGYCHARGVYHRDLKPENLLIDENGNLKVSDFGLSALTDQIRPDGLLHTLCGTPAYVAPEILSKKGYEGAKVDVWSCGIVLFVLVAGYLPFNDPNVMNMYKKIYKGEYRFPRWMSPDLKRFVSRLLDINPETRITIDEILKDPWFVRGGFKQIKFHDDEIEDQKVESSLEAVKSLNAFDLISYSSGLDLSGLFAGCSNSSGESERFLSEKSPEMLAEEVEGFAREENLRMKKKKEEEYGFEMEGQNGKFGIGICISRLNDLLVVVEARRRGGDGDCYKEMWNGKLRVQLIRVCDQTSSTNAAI
# B2: ATPase 2, plasma membrane-type (Arabidopsis thaliana (Mouse-ear cress)), P19456 (parent)
# chain: B1 chain
# partner: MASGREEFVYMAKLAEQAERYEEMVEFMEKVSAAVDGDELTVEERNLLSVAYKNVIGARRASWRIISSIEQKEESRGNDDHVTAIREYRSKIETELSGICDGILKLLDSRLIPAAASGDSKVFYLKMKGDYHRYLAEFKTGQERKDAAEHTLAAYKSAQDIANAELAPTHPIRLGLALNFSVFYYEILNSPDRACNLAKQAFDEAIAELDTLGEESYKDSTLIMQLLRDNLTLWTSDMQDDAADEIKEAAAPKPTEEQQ
# Variants of: B1
# Details: with cipkb_arath CIPK11, O22932
row,Variant,effect of a mutation on the interaction
1,S931A,disrupting interaction

# Variants of: B2
# Details: with 14332_arath GRF2, Q01525
row,Variant,effect of a mutation on the interaction
1,S931A,increasing interaction
2,S931D,disrupting interaction
3,R913A;S931D,decreasing interaction
